According to US7951356B1, “Tissue factor compositions and kits for coagulation and tumor treatment” (Board of Regents, The University of Texas System, priority 1997, dated 2011):
Substitutions are numbered along the chain they refer to. Names may count otherwise.

How the values were obtained:
[1] = cited from earlier work
[2] = system: HT29 (human colorectal carcinoma) xenograft; experiment: Tumor necrosis in HT29 xenografts 24 hours after treatment (Example XII); format: in vivo, mouse; details: 24 hours after intravenous injection; tumors 0.5 to 1.0 cm^3; FIG. 23
Protocol: For these studies, the inventors chose the HT29 (human colorectal carcinoma) xenograft tumor model. HT29 cells (10^7 cells/mouse) were subcutaneously injected into BALB/c nu/nu mice. Tumor dimensions were monitored and animals were treated when the tumor size was between 0.5 and 1.0 cm^3.
Animals were sacrificed 24 hours after treatment, perfused with saline and heparin and exsanguinated. Tumors and organs were collected, formalin fixed and histological sections were prepared. The average area of necrosis in sections of the tumors was quantified and calculated as a percentage of the total area of tumor on the section.

citrated mouse plasma = experiment: In vitro coagulation assay: tTF constructs localized on A20 lymphoma cells via bispecific antibody B21-2/10H10; format: cell-based; details: for concentration applied to the cells at which plasma coagulated in 50 seconds: A20 cells coated with B21-2/10H10, FIG. 5-8, 15; for coagulation-inducing activity once localized on A20 cells via B21-2/10H10, in words (compared with tTF219): plasma coagulation; for fold less active than tTF219 at inducing coagulation of plasma: localized on A20 cells via B21-2/10H10; for coagulation times compared with tTF219 and Factor VIIa at the same concentrations: addition of Factor VIIa at 1 nM or greater, FIG. 22
Protocol: This assay was used to verify that tTF, various derivatives and mutants thereof, and immunoglobulin-tTF conjugates acquire coagulation inducing activity once localized at a cell surface. A20 lymphoma cells (I-A^d positive) (2×10^6 cells/ml, 50 μl) were incubated for 1 h at room temperature with a bispecific antibody (50 μg/ml, 25 μl) consisting of a Fab′ arm of the B21-2 antibody directed against I-A^d linked to a Fab′ arm of the 10H10 antibody directed against a non-inhibitory epitope on tTF. The cells were washed at room temperature and varying concentrations of tTF, derivatives or mutants thereof, or immunoglobulin-tTF conjugates were added for 1 hour at room temperature. The bispecific antibody captures the tTF or tTF linked to immunoglobulin, bringing it into close approximation to the cell surface, where coagulation can proceed.
The cells were washed again at room temperature, resuspended in 75 μl of PBS and warmed to 37° C. […] The time for the first fibrin strands to form was recorded. Clotting time was plotted against tTF concentration and curves compared with standard curves prepared using standard tTF219 preparations.

[3] = Toxicity to mice of tTF mutants and Factor VIIa given separately; format: in vivo
factor X = experiment: Factor Xa production assay (chromogenic substrate S-2765) with constructs localized on A20 cells; format: biochemical; details: presence of Factors II, VII and IX, B21-2/10H10, FIG. 17
Protocol: The assay measures factor X to Xa conversion rate by means of a chromophore-generating substrate (S-2765) for factor Xa.
A20 cells (2×10^7 cells) were suspended in 10 ml medium containing 0.2% w/v sodium azide. To 2.5 ml cell suspension were added 6.8 μg of B21-2/10H10 “capture” bispecific antibody for 50 minutes at room temperature. The cells were washed and resuspended in 2.5 ml medium containing 0.2% w/v sodium azide. The tTF and immunoglobulin-tTF conjugates dissolved in the same medium were distributed in 100 μl volumes at a range of concentrations into wells of 96-well microtiter plates. To the wells was then added 100 μl of the cell/bispecific antibody suspension. The plates were incubated for 50 minutes at room temperature.
The plates were centrifuged, the supernatants were discarded and the cell pellets were resuspended in 250 μl of Wash Buffer (150 mM NaCl: 50 mM Tris-HCl, pH 8; 0.2% w/v bovine serum albumin). The cells were washed again and cells resuspended in 100 μl of a 12.5-fold dilution of Proplex T (Baxter, Inc.) containing Factors II, VII, IX and X in Dilution Buffer (Wash Buffer supplemented with 12.5 mM calcium chloride). Plates were incubated at 37° C. for 30 minutes. To each well was added Stop Solution (12.5 mM sodium ethylenediaminetetracetic acid (EDTA)) in wash buffer. Plates were centrifuged. […] The optical density of each solution was measured at 409 nm. […]

Factor VIIa: recombinant human Factor VIIa
half-life in vivo [1]: approximately two
necrosis in tumor sections, in words [2]: some necrosis

B1: H6-tTF221-cys-C′: tTF219 mutated to carry Ile-Phe-Cys after amino acid 219; SEQ ID NO:7 (protein)
chain: HHHHHHAMALVPRGSGTTNTVAAYNLTWKSTNFKTILEWEPKPVNQVYTVQISTKSGDWKSKCFYTTDTECDLTDEIVKDVKQTYLARVFSYPAGNVESTGSAGEPLYENSPEFTPYLETNLGQPTIQSFEQVGTKVNVTVEDERTLVRRNNTFLSLRDVFGKDLIYTLYYWKSSSSGKKTAKTNTNEFLIDVDKGENYCFSVQAVIPSRTVNRKSTDSPVECMGQEKGEFREIFC
concentration applied to the cells at which plasma coagulated in 50 seconds (citrated mouse plasma): 0.5 nM
concentration applied to the cells at which plasma coagulated in 50 seconds (citrated mouse plasma; listed as H6-tTF221-cys-C′ monomer): 1 nM
coagulation-inducing activity once localized on A20 cells via B21-2/10H10, in words (compared with tTF219) (citrated mouse plasma): as active as tTF219

B2: H6-tTF221-cys-C′ dimer: chemically conjugated dimer of SEQ ID NO:7 (protein)
chain: B1 chain
modifications: chemically conjugated dimer
concentration applied to the cells at which plasma coagulated in 50 seconds (citrated mouse plasma): 4 nM
fold less active than tTF219 at inducing coagulation of plasma (citrated mouse plasma): 4 fold

B3: tTF219 (G164A): amino acid 164 (Gly) of tTF219 replaced by Ala; SEQ ID NO:9 (protein)
chain: SGTTNTVAAYNLTWKSTNFKTILEWEPKPVNQVYTVQISTKSGDWKSKCFYTTDTECDLTDEIVKDVKQTYLARVFSYPAGNVESTGSAGEPLYENSPEFTPYLETNLGQPTIQSFEQVGTKVNVTVEDERTLVRRNNTFLSLRDVFGKDLIYTLYYWKSSSSAKKTAKTNTNEFLIDVDKGENYCFSVQAVIPSRTVNRKSTDSPVECMGQEKGEFRE
coagulation times compared with tTF219 and Factor VIIa at the same concentrations (citrated mouse plasma): only marginally slower coagulation times
coagulation-inducing activity once localized on A20 cells via B21-2/10H10, in words (compared with tTF219) (citrated mouse plasma): Weak coagulation
necrosis in tumor sections, in words [2]: some necrosis
toxicity to mice [3]: practically non-toxic

B4: tTF219 (W158R): tryptophan at amino acid 158 of tTF219 mutated to an arginine; SEQ ID NO:8 (protein)
chain: B3 chain with W158R, A164G
coagulation times compared with tTF219 and Factor VIIa at the same concentrations (citrated mouse plasma): only marginally slower coagulation times
coagulation-inducing activity once localized on A20 cells via B21-2/10H10, in words (compared with tTF219) (citrated mouse plasma): Weak coagulation
toxicity to mice [3]: practically non-toxic

B5: H6—N′ cys-tTF219 dimer: chemically conjugated dimer of SEQ ID NO:2 (protein)
chain: HHHHHHAMALVPRGSCGTTNTVAAYNLTWKSTNFKTILEWEPKPVNQVYTVQISTKSGDWKSKCFYTTDTECDLTDEIVKDVKQTYLARVFSYPAGNVESTGSAGEPLYENSPEFTPYLETNLGQPTIQSFEQVGTKVNVTVEDERTLVRRNNTFLSLRDVFGKDLIYTLYYWKSSSSGKKTAKTNTNEFLIDVDKGENYCFSVQAVIPSRTVNRKSTDSPVECMGQEKGEFRE
modifications: chemically conjugated dimer
coagulation-inducing activity once localized on A20 cells via B21-2/10H10, in words (compared with tTF219) (citrated mouse plasma): as active as tTF219 itself

B6: Fab′-H6—N′-cys-tTF219 (conjugate)
chain: B5 chain
modifications: left off: another chain or arm of the molecule; large carriers
activity at inducing Xa formation compared with H6—N′-cys-tTF219 (factor X): as active as H6—N′-cys-tTF219 itself

B7: IgG-H6—N′-cys-tTF219 (conjugate)
chain: B5 chain
modifications: left off: large carriers
concentration applied to the cells at which plasma coagulated in 50 seconds (citrated mouse plasma): 5 nM
fold less active than tTF219 at inducing coagulation of plasma (citrated mouse plasma): 5 fold
fold less active than H6—N′-cys-tTF219 at inducing Xa formation (factor X): 2 fold

B8: tTF221-cys-C′: tTF221-cys-C′, tested beside H6-tTF221-cys-C′ (FIG. 7) (protein)
chain: GSGTTNTVAAYNLTWKSTNFKTILEWEPKPVNQVYTVQISTKSGDWKSKCFYTTDTECDLTDEIVKDVKQTYLARVFSYPAGNVESTGSAGEPLYENSPEFTPYLETNLGQPTIQSFEQVGTKVNVTVEDERTLVRRNNTFLSLRDVFGKDLIYTLYYWKSSSSGKKTAKTNTNEFLIDVDKGENYCFSVQAVIPSRTVNRKSTDSPVECMGQEKGEFREIFC
concentration applied to the cells at which plasma coagulated in 50 seconds (citrated mouse plasma): 0.5 nM
coagulation-inducing activity once localized on A20 cells via B21-2/10H10, in words (compared with tTF219) (citrated mouse plasma): as active as tTF219
